Source: PMC2518108

Tests used:
human IGF-II (human) = assay: SPR; BIAcore T100, CM5 chip; human IGF-I (120 RU) or IGF-II (138 RU) amine-coupled; IGFBP-1s injected 60 s, 5 min dissociation; 25 C, HBS (10 mM HEPES, 150 mM NaCl, 3 uM EDTA, 0.05% TWEEN-20, pH 7.4), 30 uL/min; 1:1 model fitted globally, KD = kd/ka
human IGF-I (human) = human IGF-I (human) (UniProt P05019); assay: as above
Sequence of human IGF-I (human) (P05019 49-118): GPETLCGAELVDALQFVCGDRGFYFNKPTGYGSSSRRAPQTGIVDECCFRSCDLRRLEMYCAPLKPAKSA

Sequence of human IGFBP-1 (P08833 26-259): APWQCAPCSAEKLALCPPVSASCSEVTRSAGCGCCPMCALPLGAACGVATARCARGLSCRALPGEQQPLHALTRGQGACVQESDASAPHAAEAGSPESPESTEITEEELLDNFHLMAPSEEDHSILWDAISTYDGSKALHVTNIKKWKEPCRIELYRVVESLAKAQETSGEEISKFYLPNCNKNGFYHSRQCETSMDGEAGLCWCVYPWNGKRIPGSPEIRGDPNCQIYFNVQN

Kd (human IGF-II (human))	koff (human IGF-II (human))	kon (human IGF-II (human))	Kd (human IGF-I (human))	koff (human IGF-I (human))	kon (human IGF-I (human))	Substance
8.63 nM	0.000457 s⁻¹	53000 M⁻¹ s⁻¹	–	–	–	human IGFBP-1 (from UniProt P08833 26-259) (natural protein)
0.34 nM	0.00029 s⁻¹	867000 M⁻¹ s⁻¹	0.28 nM	0.000332 s⁻¹	1.18e+06 M⁻¹ s⁻¹	zebrafish IGFBP-1a (natural protein)
9.33 nM	0.00926 s⁻¹	993000 M⁻¹ s⁻¹	–	–	–	zebrafish IGFBP-1b (from UniProt A4K8J2 1-244) (natural protein)
